B1: Zinc transporter SLC39A7 (Homo sapiens), Q92504 (parent)
chain: MARGLGAPHWVAVGLLTWATLGLLVAGLGGHDDLHDDLQEDFHGHSHRHSHEDFHHGHSHAHGHGHTHESIWHGHTHDHDHGHSHEDLHHGHSHGYSHESLYHRGHGHDHEHSHGGYGESGAPGIKQDLDAVTLWAYALGATVLISAAPFFVLFLIPVESNSPRHRSLLQILLSFASGGLLGDAFLHLIPHALEPHSHHTLEQPGHGHSHSGQGPILSVGLWVLSGIVAFLVVEKFVRHVKGGHGHSHGHGHAHSHTRGSHGHGRQERSTKEKQSSEEEEKETRGVQKRRGGSTVPKDGPVRPQNAEEEKRGLDLRVSGYLNLAADLAHNFTDGLAIGASFRGGRGLGILTTMTVLLHEVPHEVGDFAILVQSGCSKKQAMRLQLLTAVGALAGTACALLTEGGAVGSEIAGGAGPGWVLPFTAGGFIYVATVSVLPELLREASPLQSLLEVLGLLGGVIMMVLIAHLE

Variants of: B1
Conditions: with csk21_human CSNK2A1, P68400
Chain of csk21_human CSNK2A1, P68400 (P68400 whole entry, looked up): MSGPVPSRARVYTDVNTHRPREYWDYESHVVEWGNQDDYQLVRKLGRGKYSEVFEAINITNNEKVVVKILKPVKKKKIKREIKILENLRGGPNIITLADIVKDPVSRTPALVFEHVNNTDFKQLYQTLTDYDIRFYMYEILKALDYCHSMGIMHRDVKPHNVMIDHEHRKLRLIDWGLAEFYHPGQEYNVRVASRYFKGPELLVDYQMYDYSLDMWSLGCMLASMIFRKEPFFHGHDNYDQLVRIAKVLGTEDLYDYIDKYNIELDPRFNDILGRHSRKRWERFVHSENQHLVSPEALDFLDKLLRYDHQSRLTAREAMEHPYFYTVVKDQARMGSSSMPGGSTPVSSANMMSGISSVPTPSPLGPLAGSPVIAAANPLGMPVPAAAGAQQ

Row | Variant | effect of a mutation on the interaction
1 | S275A;S276A | decreasing interaction

Source: IntAct's records for PubMed 22317921
